Source: patent publication US11485776B2, “Antibodies against infectious diseases” (priority 2015, dated 2022)

Experiments:
C. albicans = C. albicans growth on YPD agar plate; format: cell-based; conditions: 0.5 mg/ml antibody pre-incubated 1 hr, 10x dilutions spotted
Description: (A) C. albicans were cultured in YPD medium overnight at 37° C. 10^8 cfu/ml of C. albicans was mixed with equal volume of 0.5 mg/ml anti-CaENO1 IgY, 0.5 mg/ml CaS1 scFv or 1×PBS, respectively, at room temperature for 1 hr. 1 ul of each mixture in 10× dilutions was spotted on YPD agar plate and incubated at 37° C. overnight. (B) 10^3 cfu of C. albicans was mixed with PBS (control), 10 or 100 µg/ml CaS1 scFv at room temperature for 1 hr. 1 ul of each mixture was spotted on YPD agar plate and incubated at 37° C. for 5 days. The hyphal formation was observed under the microscope.
To determine the effect of scFv antibodies on the cell growth and hyphal formation, anti-CaENO1 IgY (0.5 mg/ml) or CaS1 scFv (0.5 mg/ml) or PBS were pre-incubated with C. albicans (1×10^6 cfu) for 1 hr at 37° C. After incubation, 1 ul of each mixture in 10-fold dilutions was spotted on YPD agar plate and incubated at 37° C. overnight. 10^3 cfu of C. albicans was mixed with 0 (1×PBS control), 10 or 100 µg/ml CaS1 scFv at room temperature for 1 hr. Thereafter, 1 ul of each mixture was spotted on YPD agar plate and incubated at 37° C. for 5 days. […].
We evaluated the influence of CaS1 on growth of C. albicans, we pre-incubated CaS1 scFv with C. albicans and plated on the agar.

CaENO1 = biological target: T1, CaENO1 (Candida albicans, UniProt P30575); format: binding, C. albicans
T1 construct: using full-length CaENO1 (1323 bp) as template; His (N); made in house; host or cells: E. coli BL21
Description: (A) Purified CaS1 scFv was used to recognize recombinant CaENO1 protein. The CaS1 scFv were used as primary antibody with series dilution. The goat anti-chicken light chain IgG was used as secondary antibody. The HRP conjugated donkey anti-goat IgG was used to decet. (B) OD value was calculated into percentage. […] The goat anti-chicken light chain IgG was used as secondary antibody. The HRP conjugated donkey anti-goat IgG was used to detect. (D) We calculated OD value into percentage.
The goat anti-chicken light chain IgG was used as secondary antibody. The HRP conjugated donkey anti-goat IgG was used to decet. (B, D) OD value was calculated into percentage. […] ELISA data were represented as mean±SD of the duplicated well.
After vigorous washings, the bound IgY antibodies were detected by adding HRP-conjugated polyclonal donkey anti-chicken IgY antibodies (1:3,000) (Bethyl Laboratories, Montgomery, Tex., USA) while the bound CaS1 scFv antibodies were detected by goat anti-chicken light chain antibodies (1:3,000) (Bethyl Laboratories, Montgomery, Tex., USA), followed by HRP-conjugated donkey anti-goat IgG antibodies (Jackson ImmunoResearch, USA). After washing as above, a tetramethylbenzidine (TMB) substrate solution (Sigma, USA) was added to the wells for color development. The reaction was stopped with 1 N HCl and optical density was measured at 450 nm using an ELISA plate reader (BioTek Synergy HT). Dissociate constant (KD) was calculated according to the equation, grams/molecular weight (Da)×volume (L)^−1.
The goat anti-chicken light chain IgG was used as secondary antibody. The HRP conjugated donkey anti-goat IgG was used to decet (see FIGS. 14 (A) and (C)). OD value was calculated into percentage. […] ELISA data were represented as mean±SD of the duplicated well (see FIGS. 14 (B) and (D)).

T1 sequence (P30575 whole entry): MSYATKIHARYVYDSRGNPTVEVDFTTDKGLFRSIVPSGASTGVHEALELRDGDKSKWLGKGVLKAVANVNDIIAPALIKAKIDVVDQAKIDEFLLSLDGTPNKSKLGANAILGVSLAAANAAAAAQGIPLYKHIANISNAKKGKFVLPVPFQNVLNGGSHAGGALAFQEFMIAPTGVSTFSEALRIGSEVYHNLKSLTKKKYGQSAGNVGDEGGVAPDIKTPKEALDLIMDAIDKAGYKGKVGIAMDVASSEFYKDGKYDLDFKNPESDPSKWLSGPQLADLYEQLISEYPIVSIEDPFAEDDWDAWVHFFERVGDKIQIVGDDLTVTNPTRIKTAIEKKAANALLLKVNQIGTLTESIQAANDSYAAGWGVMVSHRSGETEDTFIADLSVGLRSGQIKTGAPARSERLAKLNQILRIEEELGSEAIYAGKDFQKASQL

B1: CaS1 scFv: anti-CaENO1 scFv monoclonal antibody from chicken phage library; light chain SEQ ID NO:11, heavy chain SEQ ID NO:12 (antibody, V domains shown)
VH: TVTLDESGGGLQTPRGALSLVCKASGFTFIDYGMQWVRQAPGKGLEWVAGIGSSGSSTNYGAAVKGRATISRDDGQSTVRLQLNNLRAEDTGTYYCAKSAGGYCVNGAGCNGGSIDAWGHGTEVIVSS
VL: ALTQPSSVSANLGGTVKITCSGGSGSYGWYQQKSPGSAPVTVIYSNNQRPSNIPSRFSGSPSGSTGTLTITGVQADDEAVYFCGSRDSSYVGVFGAGTTLTVL
modifications: scFv linker; amino acid sequence comprised in a heavy chain of an anti-CaENO1 scFv monoclonal antibody (CaS1); amino acid sequence comprised in a light chain of an anti-CaENO1 scFv monoclonal antibody (CaS1)
In the case of B1, the “C. albicans growth on YPD agar plate” value (C. albicans) is reported as “decreased C. albicans growth”, the “C. albicans growth on YPD agar plate” value (C. albicans; listed as CaS1) is reported as “attenuated the growth” and the “Binding activity to recombinant CaENO1 on ELISA” value (CaENO1) is reported as “concentration dependent”. The “KD by ELISA” value (CaENO1; recombinant CaENO1 coated, KD or EC50 from OD percentage) was 0.498 µg/mL and the Kd (CaENO1; recombinant CaENO1 coated, KD or EC50 from OD percentage, read-out: KD by ELISA) was 18.8 nM.
